{
  "source": "patent US20190083587A1",
  "about": "(Novo Nordisk, published 2019)",
  "binders": {"B1": {"name": "mAb0061 (antibody, human IgG4 S228P, kappa, V domains shown)", "VH": "EVKLLESGGGLVQPGGSLKLSCAASGFDFSRYWMTWVRQAPGKGLEWIGEINPDSSTINYNPSLKDKFIISRDNAKNTLYLQMSEVRSEDTALYYCASGVFTSWGQGTLVTVSA", "VL": "DVVMTQTPLSLPVSLGDQASISCRSSQSLVHRNGNTYFHWALQKPGQSPKLLIYKVSNRFSGVPDRFSGSGSGTDFTLKISRVEAEDLGVYFCSQSTHVPYTFGGGTKLEIKR", "notes": "Mouse VH/VL, human IgG4 / kappa; variant of mAb0012 (HC T60N, LC C36A, Kabat); also called antiTLT-1 0061mab; (0012HC.T60N)2"}, "B2": {"name": "Fab0100 (Fab, V domains shown)", "VH": "B1 VH", "VL": "B1 VL", "notes": "also called anti-TLT-1 Fab; identical to Fab0061"}},
  "key": {"hTLT-1.126-162 [1]": {"target": "T1, hTLT-1.126-162 (human)", "T1 construct": "Made by solid phase peptide synthesis; not glycosylated; also called TLT-1 stalk peptide; chain P", "T1 peptide": "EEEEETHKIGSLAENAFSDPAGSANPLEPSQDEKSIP", "assay": "told in the HX-MS example; method not given"}, "hTLT-1 ECD-His": {"target": "T2, hTLT-1 ECD-His (human, UniProt Q86YW5 16-162)", "T2 construct": "Extracellular domain of human TLT-1 with C-terminal His-6 tag; the range 16-168 is computed from these; also called TLT-1-His; His tagged human TLT1", "T2 sequence": "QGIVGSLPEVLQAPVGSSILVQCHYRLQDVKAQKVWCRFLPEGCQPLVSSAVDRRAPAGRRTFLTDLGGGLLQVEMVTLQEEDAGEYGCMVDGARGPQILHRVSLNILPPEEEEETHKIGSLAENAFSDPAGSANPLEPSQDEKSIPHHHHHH", "assay": "SPR Biacore, mAb captured via human Fc mAb, TLT-1 as analyte", "protocol": "Method: The mAbs of interest were either immobilized directly to a CM5 chip or by capture via a human Fc capture mAb immobilized to a CM5 chip, while TLT-1-His was immobilized by capture via an anti-His mAb CM5 chip for analysis of Fabs.\nmAb direct capture: The TLT-1 mAbs were immobilised to a level of approx 500-1000 RU on a CM5 chip (50 μg/ml diluted in Na-acetate, pH 4.0) using the standard procedure recommended by the supplier. Two-fold dilutions of TLT-1 from 200 nM to 0.2 nM were tested for binding to the mAbs. Running and dilution buffer: 10 mM HEPES, 150 mM, 0.005% p20, pH 7.4. Regeneration was obtained by 10 mM Glycine, pH 1.7. mAb capture via human Fc mAb: Human Fc mAb was immobilised to approx 10.000 RU. The mAb of interest was added (approx 100 nM). Two-fold dilutions of TLT-1 from 200 nM to 0.2 nM were tested. Running and dilution buffer: 10 mM HEPES, 150 mM, 0.005% p20, pH 7.4. Regeneration was obtained in 3 M MgCl₂."}, "[2]": {"target": "T3, biotinylated 20 mer peptide 14 from stalk region of TLT-1 (N-terminal bio-Oeg (biotin, 8-amino-3,6-dioxaoctanoic acid spacer))", "T3 construct": "also called B 2", "T3 peptide": "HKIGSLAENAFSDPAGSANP", "assay": "peptide-walking ELISA on streptavidin plate, triple determination", "protocol": "(§1) The peptide walking ELISA defined the minimal binding region of the peptide. This was established by coating biotinylated peptides with one residue frameshift in the stalk region of TLT-1 in streptavidin plates followed by binding of the antibody of interest (mAb0061). A secondary antibody was added for detection and binding was measured at 450 nm. Positive control: binding to biotinylated TLT-1."}, "[3]": {"target": "T4, biotinylated 20 mer peptide 8 from stalk region of TLT-1 (N-terminal bio-Oeg (biotin, 8-amino-3,6-dioxaoctanoic acid spacer))", "T4 construct": "also called A 8", "T4 peptide": "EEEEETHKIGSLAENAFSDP", "assay": "peptide-walking ELISA on streptavidin plate, triple determination", "protocol": "as §1"}, "[4]": {"target": "T5, biotinylated 20 mer peptide 7 from stalk region of TLT-1 (N-terminal bio-Oeg (biotin, 8-amino-3,6-dioxaoctanoic acid spacer))", "T5 construct": "also called A 7", "T5 peptide": "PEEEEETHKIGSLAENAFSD", "assay": "peptide-walking ELISA on streptavidin plate, triple determination", "protocol": "as §1"}, "[5]": {"target": "T6, biotinylated 20 mer peptide 16 from stalk region of TLT-1 (N-terminal bio-Oeg (biotin, 8-amino-3,6-dioxaoctanoic acid spacer))", "T6 construct": "also called B 4", "T6 peptide": "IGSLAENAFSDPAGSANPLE", "assay": "peptide-walking ELISA on streptavidin plate, triple determination", "protocol": "as §1"}, "[6]": {"target": "T7, biotinylated 16 mer peptide 41 from the stalk region of hTLT-1 (SMILES …)", "T7 construct": "also called D 5", "T7 peptide": "{Biotin-AEEA}-HKIGSLAENAFSDPAG-NH2", "assay": "peptide-walking ELISA on streptavidin plate, triple determination", "protocol": "as §1"}, "[7]": {"target": "T8, biotinylated 20 mer peptide 6 from stalk region of TLT-1 (N-terminal bio-Oeg (biotin, 8-amino-3,6-dioxaoctanoic acid spacer))", "T8 construct": "also called A 6", "T8 peptide": "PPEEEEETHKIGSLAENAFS", "assay": "peptide-walking ELISA on streptavidin plate, triple determination", "protocol": "as §1"}, "[8]": {"target": "T9, biotinylated 20 mer peptide 10 from stalk region of TLT-1 (N-terminal bio-Oeg (biotin, 8-amino-3,6-dioxaoctanoic acid spacer))", "T9 construct": "also called A10", "T9 peptide": "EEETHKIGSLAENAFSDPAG", "assay": "peptide-walking ELISA on streptavidin plate, triple determination", "protocol": "as §1"}, "[9]": {"target": "T10, biotinylated 20 mer peptide 13 from stalk region of TLT-1 (N-terminal bio-Oeg (biotin, 8-amino-3,6-dioxaoctanoic acid spacer))", "T10 construct": "also called B 1", "T10 peptide": "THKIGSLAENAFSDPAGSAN", "assay": "peptide-walking ELISA on streptavidin plate, triple determination", "protocol": "as §1"}, "[10]": {"target": "T11, biotinylated 20 mer peptide 5 from stalk region of TLT-1 (N-terminal bio-Oeg (biotin, 8-amino-3,6-dioxaoctanoic acid spacer))", "T11 construct": "also called A 5", "T11 peptide": "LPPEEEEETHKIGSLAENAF", "assay": "peptide-walking ELISA on streptavidin plate, triple determination", "protocol": "as §1"}, "[11]": {"target": "T12, biotinylated 16 mer peptide 38 from the stalk region of hTLT-1 (SMILES …)", "T12 construct": "also called D 2", "T12 peptide": "{Biotin-AEEA}-EETHKIGSLAENAFSD-NH2", "assay": "peptide-walking ELISA on streptavidin plate, triple determination", "protocol": "as §1"}, "[12]": {"target": "T13, biotinylated 16 mer peptide 40 from the stalk region of hTLT-1 (SMILES …)", "T13 construct": "also called D 4", "T13 peptide": "{Biotin-AEEA}-THKIGSLAENAFSDPA-NH2", "assay": "peptide-walking ELISA on streptavidin plate, triple determination", "protocol": "as §1"}, "[13]": {"target": "T14, biotinylated 20 mer peptide 9 from stalk region of TLT-1 (N-terminal bio-Oeg (biotin, 8-amino-3,6-dioxaoctanoic acid spacer))", "T14 construct": "also called A 9", "T14 peptide": "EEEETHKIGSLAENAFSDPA", "assay": "peptide-walking ELISA on streptavidin plate, triple determination", "protocol": "as §1"}, "[14]": {"target": "T15, biotinylated 20 mer peptide 11 from stalk region of TLT-1 (N-terminal bio-Oeg (biotin, 8-amino-3,6-dioxaoctanoic acid spacer))", "T15 construct": "also called A11", "T15 peptide": "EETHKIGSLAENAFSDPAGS", "assay": "peptide-walking ELISA on streptavidin plate, triple determination", "protocol": "as §1"}, "[15]": {"target": "T16, biotinylated 20 mer peptide 12 from stalk region of TLT-1 (N-terminal bio-Oeg (biotin, 8-amino-3,6-dioxaoctanoic acid spacer))", "T16 construct": "also called A12", "T16 peptide": "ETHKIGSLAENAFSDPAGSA", "assay": "peptide-walking ELISA on streptavidin plate, triple determination", "protocol": "as §1"}, "[16]": {"target": "T17, biotinylated 16 mer peptide 39 from the stalk region of hTLT-1 (SMILES …)", "T17 construct": "also called D 3", "T17 peptide": "{Biotin-AEEA}-ETHKIGSLAENAFSDP-NH2", "assay": "peptide-walking ELISA on streptavidin plate, triple determination", "protocol": "as §1"}, "[17]": {"target": "T18, biotinylated 16 mer peptide 37 from the stalk region of hTLT-1 (SMILES …)", "T18 peptide": "{Biotin-AEEA}-EEETHKIGSLAENAFS-NH2", "assay": "peptide-walking ELISA on streptavidin plate, triple determination", "protocol": "as §1"}, "[18]": {"target": "T19, biotinylated 20 mer peptide 15 from stalk region of TLT-1 (N-terminal bio-Oeg (biotin, 8-amino-3,6-dioxaoctanoic acid spacer))", "T19 construct": "also called B 3", "T19 peptide": "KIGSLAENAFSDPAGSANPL", "assay": "peptide-walking ELISA on streptavidin plate, triple determination", "protocol": "as §1"}, "[19]": {"target": "T20, biotinylated 16 mer peptide 36 from the stalk region of hTLT-1 (SMILES …)", "T20 construct": "also called C12", "T20 peptide": "{Biotin-AEEA}-EEEETHKIGSLAENAF-NH2", "assay": "peptide-walking ELISA on streptavidin plate, triple determination", "protocol": "as §1"}, "[20]": {"target": "T21, biotinylated 16 mer peptide 42 from the stalk region of hTLT-1 (SMILES …)", "T21 construct": "also called D 6", "T21 peptide": "{Biotin-AEEA}-KIGSLAENAFSDPAGS-NH2", "assay": "peptide-walking ELISA on streptavidin plate, triple determination", "protocol": "as §1"}, "hTLT-1.126-162 [21]": {"target": "T1, hTLT-1.126-162", "assay": "crystal structure of the Fab0100:hTLT-1.126-162 complex; complex isolated by gel filtration", "protocol": "The complex was subjected to gel filtration using a Superdex 200 HighLoad 26/60 (GE Healthcare) column eluted with PBS-buffer (pH 7.4) at a flow rate of 1 ml/min. Fractions corresponding to a volume of 3 ml were collected.\nThe crystal was allowed to soak for about 15 seconds, then flash frozen in liquid N₂ and during data collection kept at 100 K by a cryogenic N₂ gas stream. Crystallographic data were subsequently collected to 1.85 Å resolution at beam-line BL911-3 (Ursby, T. et al. (2004) AIP Conference Proceedings 705, 1241-1246) at MAX-lab, Lund, Sweden. Space group determination, integration and scaling of the data were made in the XDS software package. Cell parameters for the synchrotron data were determined to be 82.54, 65.32, 108.05 Å, 90°, 95.15° and 90°, for a, b, c, α, β and γ, respectively, and space group was determined to be C2. Rsym for intensities of the data set was calculated to be 6.7%."}},
  "note": "The star is where a group is joined. Biotin = O=C1N[C@H]2[C@H](CS[C@H]2CCCCC(=O)*)N1; AEEA = NCCOCCOCC(=O)O",
  "data": [
    {"binder": "B1", "values": [
      {"measurement": "binding result", "setting": "hTLT-1.126-162 [1]", "value": "binds"},
      {"measurement": "Kd", "setting": "hTLT-1 ECD-His", "value": 3.75, "unit": "nM"},
      {"measurement": "koff", "setting": "hTLT-1 ECD-His", "value": 0.0035, "unit": "s⁻¹"},
      {"measurement": "kon", "setting": "hTLT-1 ECD-His", "value": 932000, "unit": "M⁻¹ s⁻¹"},
      {"measurement": "absorbance at 450 nm", "setting": "[2]", "value": "> 3"},
      {"measurement": "absorbance at 450 nm", "setting": "[3]", "value": "> 3"},
      {"measurement": "absorbance at 450 nm", "setting": "[4]", "value": "> 3"},
      {"measurement": "absorbance at 450 nm", "setting": "[5]", "value": "> 3"},
      {"measurement": "absorbance at 450 nm", "setting": "[6]", "value": "> 3"},
      {"measurement": "absorbance at 450 nm", "setting": "[7]", "value": "> 3"},
      {"measurement": "absorbance at 450 nm", "setting": "[8]", "value": "> 3"},
      {"measurement": "absorbance at 450 nm", "setting": "[9]", "value": "> 3"},
      {"measurement": "absorbance at 450 nm", "setting": "[10]", "value": "> 3"},
      {"measurement": "absorbance at 450 nm", "setting": "[11]", "value": "> 3"},
      {"measurement": "absorbance at 450 nm", "setting": "[12]", "value": "> 3"},
      {"measurement": "absorbance at 450 nm", "setting": "[13]", "value": "> 3"},
      {"measurement": "absorbance at 450 nm", "setting": "[14]", "value": "> 3"},
      {"measurement": "absorbance at 450 nm", "setting": "[15]", "value": "> 3"},
      {"measurement": "absorbance at 450 nm", "setting": "[16]", "value": "> 3"},
      {"measurement": "absorbance at 450 nm", "setting": "[17]", "value": "> 3"},
      {"measurement": "absorbance at 450 nm", "setting": "[18]", "value": "> 3"},
      {"measurement": "absorbance at 450 nm", "setting": "[19]", "value": "> 3"},
      {"measurement": "absorbance at 450 nm", "setting": "[20]", "value": "> 3"}
    ]},
    {"binder": "B2", "values": [
      {"measurement": "binding result", "setting": "hTLT-1.126-162 [21]", "value": "binds"}
    ]}
  ]
}
